B1: BXhVH2VL7 (antibody, human IgG1, V domains shown)
VH: EVQLLESGGGLVQPGGSLRLSCAASGFTFSTYTMSWVRQTPGKRLEWVAYISKGGGSTYYPDTVKGRFTISRDNSKNTLYLQMNSLRAEDTAVYYCAKGAMYGNDFFYPMDYWGQGTTVTVSS
VL: QIVLTQSPATLSLSPGERATLSCSASSSVSYMHWYQQKPGQSPRLLIYTTSNLASGIPSRFSGSGSGTFYTLTISSLEPEDAADYYCHQWSSYPWTFGGGTKLEIK
notes: Human IgG1 constant regions (IgG1 expression vectors); COS-7 supernatant; also called hVH2/hVL7
B2: BXhVH2VL5 (antibody, human IgG1, V domains shown)
VH: EVQLLESGGGLVQPGGSLRLSCAASGFTFSTYTMSWVRQTPGKRLEWVAYISKGGGSTYYPDTVKGRFTISRDNSKNTLYLQMNSLRAEDTAVYYCAKGAMYGNDFFYPMDYWGQGTTVTVSS
VL: QIVLTQSPATLSLSPGERATLSCSASSSVSYMHWYQQKPGQSPRLLIYTTSNLASGIPSRFSGSGSGTDYTLTISSLEPEDAADYYCHQWSSYPWTFGQGTKLEIK
notes: Human IgG1 constant regions (IgG1 expression vectors); COS-7 supernatant; also called hVH2/hVL5
B3: BXhVH2VL2 (antibody, human IgG1, V domains shown)
VH: EVQLLESGGGLVQPGGSLRLSCAASGFTFSTYTMSWVRQTPGKRLEWVAYISKGGGSTYYPDTVKGRFTISRDNSKNTLYLQMNSLRAEDTAVYYCAKGAMYGNDFFYPMDYWGQGTTVTVSS
VL: EIVLTQSPATLSLSPGERATLSCSASSSVSYMHWYQQKPGQSPRLLIYTTSNLASGIPSRFSGSGSGTDFTLTISSLEPEDAADYYCHQWSSYPWTFGQGTKLEIK
notes: Human IgG1 constant regions (IgG1 expression vectors); COS-7 supernatant; also called hVH2/hVL2
B4: BXhVH2VL6 (antibody, human IgG1, V domains shown)
VH: EVQLLESGGGLVQPGGSLRLSCAASGFTFSTYTMSWVRQTPGKRLEWVAYISKGGGSTYYPDTVKGRFTISRDNSKNTLYLQMNSLRAEDTAVYYCAKGAMYGNDFFYPMDYWGQGTTVTVSS
VL: EIVLTQSPATLSLSPGEEATLSCSASSSVSYMHWYQQKPGQSPRLLIYTTSNLASGIPSRFSGSGSGTFYTLTISSLEPEDAADYYCHQWSSYPWTFGGGTKLEIK
notes: Human IgG1 constant regions (IgG1 expression vectors); COS-7 supernatant; also called hVH2/hVL6
B5: BXhVH1VL6 (antibody, human IgG1, V domains shown)
VH: EVKLLESGGGLVQPGGSLRLSCAASGFTFSTYTMSWVRQTPGKGLEWVAYISKGGGSTYYPDTVKGRFTISRDNSKNTLYLQMNSLRAEDTAVYYCAKGAMYGNDFFYPMDYWGQGTTVTVSS
VL: EIVLTQSPATLSLSPGEEATLSCSASSSVSYMHWYQQKPGQSPRLLIYTTSNLASGIPSRFSGSGSGTFYTLTISSLEPEDAADYYCHQWSSYPWTFGGGTKLEIK
notes: Human IgG1 constant regions (IgG1 expression vectors); COS-7 supernatant; also called hVH1/hVL6
B6: BXhVH2VL1 (antibody, human IgG1, V domains shown)
VH: EVQLLESGGGLVQPGGSLRLSCAASGFTFSTYTMSWVRQTPGKRLEWVAYISKGGGSTYYPDTVKGRFTISRDNSKNTLYLQMNSLRAEDTAVYYCAKGAMYGNDFFYPMDYWGQGTTVTVSS
VL: EIVLTQSPATLSLSPGERATLSCSASSSVSYMHWYQQKPGQAPRLLIYTTSNLASGIPARFSGSGSGTDFTLTISSLEPEDFAVYYCHQWSSYPWTFGQGTKLEIK
notes: Human IgG1 constant regions (IgG1 expression vectors); COS-7 supernatant; also called hVH2/hVL1
B7: BXhVH1VL4 (antibody, human IgG1, V domains shown)
VH: EVKLLESGGGLVQPGGSLRLSCAASGFTFSTYTMSWVRQTPGKGLEWVAYISKGGGSTYYPDTVKGRFTISRDNSKNTLYLQMNSLRAEDTAVYYCAKGAMYGNDFFYPMDYWGQGTTVTVSS
VL: QIVLTQSPATLSLSPGERATLSCSASSSVSYMHWYQQKPGQSPRLLIYTTSNLASGIPSRFSGSGSGTDFTLTISSLEPEDAADYYCHQWSSYPWTFGGGTKLEIK
notes: Human IgG1 constant regions (IgG1 expression vectors); COS-7 supernatant; also called hVH1/hVL4
B8: BXhVH2VL4 (antibody, human IgG1, V domains shown)
VH: EVQLLESGGGLVQPGGSLRLSCAASGFTFSTYTMSWVRQTPGKRLEWVAYISKGGGSTYYPDTVKGRFTISRDNSKNTLYLQMNSLRAEDTAVYYCAKGAMYGNDFFYPMDYWGQGTTVTVSS
VL: QIVLTQSPATLSLSPGERATLSCSASSSVSYMHWYQQKPGQSPRLLIYTTSNLASGIPSRFSGSGSGTDFTLTISSLEPEDAADYYCHQWSSYPWTFGGGTKLEIK
notes: Human IgG1 constant regions (IgG1 expression vectors); COS-7 supernatant; also called hVH2/hVL4
B9: BXhVH1VL1 (antibody, human IgG1, V domains shown)
VH: EVKLLESGGGLVQPGGSLRLSCAASGFTFSTYTMSWVRQTPGKGLEWVAYISKGGGSTYYPDTVKGRFTISRDNSKNTLYLQMNSLRAEDTAVYYCAKGAMYGNDFFYPMDYWGQGTTVTVSS
VL: EIVLTQSPATLSLSPGERATLSCSASSSVSYMHWYQQKPGQAPRLLIYTTSNLASGIPARFSGSGSGTDFTLTISSLEPEDFAVYYCHQWSSYPWTFGQGTKLEIK
notes: Human IgG1 constant regions (IgG1 expression vectors); COS-7 supernatant; also called hVH1/hVL1
B10: BXhVH1VL7 (antibody, human IgG1, V domains shown)
VH: EVKLLESGGGLVQPGGSLRLSCAASGFTFSTYTMSWVRQTPGKGLEWVAYISKGGGSTYYPDTVKGRFTISRDNSKNTLYLQMNSLRAEDTAVYYCAKGAMYGNDFFYPMDYWGQGTTVTVSS
VL: QIVLTQSPATLSLSPGERATLSCSASSSVSYMHWYQQKPGQSPRLLIYTTSNLASGIPSRFSGSGSGTFYTLTISSLEPEDAADYYCHQWSSYPWTFGGGTKLEIK
notes: Human IgG1 constant regions (IgG1 expression vectors); COS-7 supernatant; also called hVH1/hVL7
B11: BXhVH1VL3 (antibody, human IgG1, V domains shown)
VH: EVKLLESGGGLVQPGGSLRLSCAASGFTFSTYTMSWVRQTPGKGLEWVAYISKGGGSTYYPDTVKGRFTISRDNSKNTLYLQMNSLRAEDTAVYYCAKGAMYGNDFFYPMDYWGQGTTVTVSS
VL: QIVLTQSPATLSLSPGERATLSCSASSSVSYMHWYQQKPGQSPRLLIYTTSNLASGIPSRFSGSGSGTFYTLTISSLEPEDFAVYYCHQWSSYPWTFGGGTKLEIK
notes: Human IgG1 constant regions (IgG1 expression vectors); COS-7 supernatant; also called hVH1/hVL3
B12: BXhVH2VL3 (antibody, human IgG1, V domains shown)
VH: EVQLLESGGGLVQPGGSLRLSCAASGFTFSTYTMSWVRQTPGKRLEWVAYISKGGGSTYYPDTVKGRFTISRDNSKNTLYLQMNSLRAEDTAVYYCAKGAMYGNDFFYPMDYWGQGTTVTVSS
VL: QIVLTQSPATLSLSPGERATLSCSASSSVSYMHWYQQKPGQSPRLLIYTTSNLASGIPSRFSGSGSGTFYTLTISSLEPEDFAVYYCHQWSSYPWTFGGGTKLEIK
notes: Human IgG1 constant regions (IgG1 expression vectors); COS-7 supernatant; also called hVH2/hVL3
B13: BXhVH1VL8 (antibody, human IgG1, V domains shown)
VH: EVKLLESGGGLVQPGGSLRLSCAASGFTFSTYTMSWVRQTPGKGLEWVAYISKGGGSTYYPDTVKGRFTISRDNSKNTLYLQMNSLRAEDTAVYYCAKGAMYGNDFFYPMDYWGQGTTVTVSS
VL: QIVLTQSPATLSLSPGEEATLSCSASSSVSYMHWYQQKSGTSPRLLIYTTSNLASGIPSRFSGSGSGTFYTLTISSLEPEDAADYYCHQWSSYPWTFGGGTKLEIK
notes: Human IgG1 constant regions (IgG1 expression vectors); COS-7 supernatant; also called hVH1/hVL8
B14: BXhVH1VL2 (antibody, human IgG1, V domains shown)
VH: EVKLLESGGGLVQPGGSLRLSCAASGFTFSTYTMSWVRQTPGKGLEWVAYISKGGGSTYYPDTVKGRFTISRDNSKNTLYLQMNSLRAEDTAVYYCAKGAMYGNDFFYPMDYWGQGTTVTVSS
VL: EIVLTQSPATLSLSPGERATLSCSASSSVSYMHWYQQKPGQSPRLLIYTTSNLASGIPSRFSGSGSGTDFTLTISSLEPEDAADYYCHQWSSYPWTFGQGTKLEIK
notes: Human IgG1 constant regions (IgG1 expression vectors); COS-7 supernatant; also called hVH1/hVL2
B15: BXhVH1VL5 (antibody, human IgG1, V domains shown)
VH: EVKLLESGGGLVQPGGSLRLSCAASGFTFSTYTMSWVRQTPGKGLEWVAYISKGGGSTYYPDTVKGRFTISRDNSKNTLYLQMNSLRAEDTAVYYCAKGAMYGNDFFYPMDYWGQGTTVTVSS
VL: QIVLTQSPATLSLSPGERATLSCSASSSVSYMHWYQQKPGQSPRLLIYTTSNLASGIPSRFSGSGSGTDYTLTISSLEPEDAADYYCHQWSSYPWTFGQGTKLEIK
notes: Human IgG1 constant regions (IgG1 expression vectors); COS-7 supernatant; also called hVH1/hVL5

Biological target: T1, human TrkA receptor on the cell surface (human, UniProt P04629 33-796)
T1 construct: whole, on cells; PC12-hTrkA: high density; also called hTrkA; huTrkA
T1 sequence (P04629 33-796): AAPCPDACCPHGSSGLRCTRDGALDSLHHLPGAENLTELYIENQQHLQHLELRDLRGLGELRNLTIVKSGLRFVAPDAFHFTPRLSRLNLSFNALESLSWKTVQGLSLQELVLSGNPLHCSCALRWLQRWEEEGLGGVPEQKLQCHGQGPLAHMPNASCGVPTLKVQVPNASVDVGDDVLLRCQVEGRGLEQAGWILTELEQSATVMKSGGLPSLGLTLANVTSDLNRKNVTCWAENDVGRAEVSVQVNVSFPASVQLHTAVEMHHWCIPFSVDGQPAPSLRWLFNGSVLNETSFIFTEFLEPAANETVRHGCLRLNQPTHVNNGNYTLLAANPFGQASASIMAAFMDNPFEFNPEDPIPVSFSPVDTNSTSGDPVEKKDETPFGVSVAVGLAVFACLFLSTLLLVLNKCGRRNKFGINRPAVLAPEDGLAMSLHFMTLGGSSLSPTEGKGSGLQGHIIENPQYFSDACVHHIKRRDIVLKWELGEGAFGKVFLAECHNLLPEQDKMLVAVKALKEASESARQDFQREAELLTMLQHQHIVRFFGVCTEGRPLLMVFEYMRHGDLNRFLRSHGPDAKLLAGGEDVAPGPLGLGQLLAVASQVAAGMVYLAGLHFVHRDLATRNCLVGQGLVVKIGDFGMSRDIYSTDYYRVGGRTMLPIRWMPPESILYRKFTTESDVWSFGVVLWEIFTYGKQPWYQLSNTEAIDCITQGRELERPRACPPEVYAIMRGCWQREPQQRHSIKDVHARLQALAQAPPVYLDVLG
Experiment: flow cytometry on TF-1 cells, 4 µg/ml
Design: Geo Mean Fluorescence: reference not given here

Compared with B1, B2 is lower in “Fold Increase” value: 1.9 fold for the first, 1.8 fold for the second.

B3 and B4 are the same in “Fold Increase” value: 1.8 fold for the first, 1.8 fold for the second.

Going from B5 to B6, the “Fold Increase” value rises from 1.4 fold to 2.6 fold.

Going from B7 to B8, the “Fold Increase” value rises from 1.5 fold to 1.8 fold.

Going from B9 to B10, the “Fold Increase” value falls from 1.7 fold to 1.5 fold.

First: B11
Second: B12
The “Fold Increase” value of the first is lower: 1.8 fold for the first, 3.1 fold for the second.

Compared with B13, B14 is lower in “Fold Increase” value: 1.5 fold for the first, 1.3 fold for the second.

For B15, the “Fold Increase” value was 1.3 fold.

First: B1
Second: B2
The “Geo Mean Fluorescence” value of the first is higher: 6.5 for the first, 6.4 for the second.

B3 and B4 are the same in “Geo Mean Fluorescence” value: 6.4 for the first, 6.4 for the second.

Going from B5 to B6, the “Geo Mean Fluorescence” value rises from 4.9 to 9.2.

Going from B7 to B8, the “Geo Mean Fluorescence” value rises from 5.1 to 6.1.

Going from B9 to B10, the “Geo Mean Fluorescence” value falls from 5.7 to 5.1.

Going from B11 to B12, the “Geo Mean Fluorescence” value rises from 6.1 to 10.8.

Going from B13 to B14, the “Geo Mean Fluorescence” value falls from 5.2 to 4.6.

For B15, the “Geo Mean Fluorescence” value was 4.5.

— US20110145941A1 (LAY LINE GENOMICS S P A, published 2011)
